The values below come from publication PMC12894433.

The data set concerns dCas9 (EnGen Spy dCas9, SNAP-tag) (Streptococcus pyogenes). Put plainly: single-molecule fluorescence co-localization. The conditions noted are these: NEBuffer r3.1 adjusted to 1 mM MgCl2; single-molecule: 17 nM YOYO-1, 1 ng DNA, about 1 nM dCas9-RNA, 15 min at 37 C; EMSA: 1 mM DTT, 1% agarose 1x TAE gel.

“AAV2-ITR crRNA:tracrRNA-ATTO550 guide + pAAV-U6-sgRNA-CMV-GFP plasmid (positive)” displayed a binding signal (% co-localization) of 51. Substance “AAV2-ITR crRNA:tracrRNA-ATTO550 guide + plasmid lacking the target site (negative)” showed a binding signal (% co-localization) of 23.
